This is an account of results in paper PMC314469, “Protein Interaction Networks by Proteome Peptide Scanning” (PLoS Biology, 2004).

What all share (test): SPOT array
Experiment [1] addresses T1, Boi1 SH3 (BOI1_YEAST), P38041.
T1 chain: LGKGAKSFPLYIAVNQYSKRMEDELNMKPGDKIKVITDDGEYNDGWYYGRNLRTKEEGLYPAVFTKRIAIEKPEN

Experiment [2] concerns the target T2, Boi2 SH3 (BOI2_YEAST), P39969.
T2 chain: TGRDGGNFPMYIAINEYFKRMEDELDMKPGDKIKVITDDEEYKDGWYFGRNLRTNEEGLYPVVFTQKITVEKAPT

The target in experiment [3] is T3, Myo5 SH3 (MYO5_YEAST), Q04439.
T3 chain: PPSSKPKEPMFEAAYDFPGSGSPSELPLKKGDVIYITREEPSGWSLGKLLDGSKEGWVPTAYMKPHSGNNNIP

Experiment [4] addresses T4, Rvs167 SH3 (RV167_YEAST), P39743.
T4 chain: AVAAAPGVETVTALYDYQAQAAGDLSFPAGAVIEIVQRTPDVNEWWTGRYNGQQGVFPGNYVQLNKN

For experiment [5], the target named is Sho1 SH3 (SHO1_YEAST), P40073.
The target in experiment [6] is T5, Yfr024 SH3 (LSB3_YEAST), P43603.
T5 chain: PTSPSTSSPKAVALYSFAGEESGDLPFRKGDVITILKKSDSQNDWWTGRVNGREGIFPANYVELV

Experiment [7] concerns the target T6, Yhr016c SH3 (YSC84_YEAST), P32793.
T6 chain: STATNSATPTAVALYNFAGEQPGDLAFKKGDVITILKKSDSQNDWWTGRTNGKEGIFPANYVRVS

Sho1 SH3 (SHO1_YEAST), P40073, sequence (P40073 295-366): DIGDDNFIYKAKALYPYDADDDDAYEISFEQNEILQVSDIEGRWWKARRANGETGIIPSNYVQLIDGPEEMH

For the molecule EKNARGIPQAPFIE [YGR078C 9-22], the normalised SPOT signal, Boehringer light units (BLU); mean over the file's lines of this peptide in experiment [1] was determined as 48.1; in experiment [2], 10.5; in experiment [3] it was 136; in experiment [4], 33.4; in experiment [5] it was 24.1; in experiment [6], 202. Besides, the normalised SPOT signal, Boehringer light units (BLU); mean over the file's lines of this peptide in experiment [7] stood at 42.5.
ELDIKQGPVRPFIV [YDL095W 18-31]: the normalised SPOT signal, Boehringer light units (BLU); mean over the file's lines of this peptide is 86.2 in experiment [1]; 33.2 in experiment [2]; 161 in experiment [3]; 24.5 in experiment [4]; 27.9 in experiment [5]; 41.1 in experiment [6]. The molecule further registered a normalised SPOT signal, Boehringer light units (BLU); mean over the file's lines of this peptide in experiment [7] of 17.8.
As for EKEAKSEPQQPEDN [YML010W 68-81], the normalised SPOT signal, Boehringer light units (BLU); mean over the file's lines of this peptide was 22.6 in experiment [1]; 17.9 in experiment [2]; 139 in experiment [3]; 19.4 in experiment [4]; 53.3 in experiment [5]; -0 in experiment [6]. The molecule also displayed a normalised SPOT signal, Boehringer light units (BLU); mean over the file's lines of this peptide in experiment [7] of 8.8.
Take EKELKEGPSSPASI [YJL076W 376-389]: the normalised SPOT signal, Boehringer light units (BLU); mean over the file's lines of this peptide in experiment [1] was 46.3; in experiment [2], 13.1; in experiment [3] it was 208; in experiment [4], 41.1; in experiment [5], 61.7; in experiment [6], 0. The molecule also showed a normalised SPOT signal, Boehringer light units (BLU); mean over the file's lines of this peptide in experiment [7] of 28.2.
Take EIKDRDQPAVPPSP [YOL047C 317-330]: the normalised SPOT signal, Boehringer light units (BLU); mean over the file's lines of this peptide in experiment [1] was 5.1; in experiment [2], 20.6; in experiment [3] it was 108; in experiment [4], 67.9; in experiment [5] it was 20.2; in experiment [6] it was 8.7. Further, the normalised SPOT signal, Boehringer light units (BLU); mean over the file's lines of this peptide in experiment [7] was -0.
In the case of EKESRHYPIKPPSP [YMR147W 121-134], the normalised SPOT signal, Boehringer light units (BLU); mean over the file's lines of this peptide in experiment [1] worked out at 64.2; in experiment [2], 20.2; in experiment [3], 180; in experiment [4], 72.2; in experiment [5] it was 44.6; in experiment [6] it was 31.6. Further, the normalised SPOT signal, Boehringer light units (BLU); mean over the file's lines of this peptide in experiment [7] was 39.7.
For the molecule ENENKKLPPAPTVF [YKR103W 236-249], the normalised SPOT signal, Boehringer light units (BLU); mean over the file's lines of this peptide in experiment [1] was determined as 50.9; in experiment [2], 12.9; in experiment [3], 67.7; in experiment [4], 22; in experiment [5] it was 3520; in experiment [6] it was 16.2. The normalised SPOT signal, Boehringer light units (BLU); mean over the file's lines of this peptide in experiment [7] stood at 24.6.
For EKYGKDQPESPVPE [YMR285C 368-381], the normalised SPOT signal, Boehringer light units (BLU); mean over the file's lines of this peptide in experiment [1] came out at 62.1; in experiment [2], 12.1; in experiment [3] it was 143; in experiment [4] it was 41.8; in experiment [5], 66.3; in experiment [6], 0. For the same molecule, in experiment [7], the normalised SPOT signal, Boehringer light units (BLU); mean over the file's lines of this peptide is 1.6.
Regarding ELDTKTIPELPFSM [YJR092W 117-130], the normalised SPOT signal, Boehringer light units (BLU); mean over the file's lines of this peptide is -0 in experiment [1]; 24.8 in experiment [2]; 53.2 in experiment [3]; 98.8 in experiment [4]; 44.1 in experiment [5]; 27.4 in experiment [6]. The same molecule registered a normalised SPOT signal, Boehringer light units (BLU); mean over the file's lines of this peptide in experiment [7] of 12.8.
Consider EIPSKDHPYDPEKD [YGR020C 93-106], for which the normalised SPOT signal, Boehringer light units (BLU); mean over the file's lines of this peptide in experiment [1] is 51.8; in experiment [2] it was 7.3; in experiment [3], 51.8; in experiment [4] it was 0; in experiment [5], 31.1; in experiment [6] it was 0. The normalised SPOT signal, Boehringer light units (BLU); mean over the file's lines of this peptide in experiment [7] worked out at 6.
With ELQIRYKPTPPLKK [YPL074W 331-344], the normalised SPOT signal, Boehringer light units (BLU); mean over the file's lines of this peptide in experiment [1] came out at 87.9; in experiment [2], 17.3; in experiment [3] it was 171; in experiment [4] it was 188; in experiment [5], 76.5; in experiment [6] it was 930. For the same molecule, the normalised SPOT signal, Boehringer light units (BLU); mean over the file's lines of this peptide in experiment [7] is 42.2.
With EIAKRLQPGSPVLG [YHR047C 776-789], the normalised SPOT signal, Boehringer light units (BLU); mean over the file's lines of this peptide in experiment [1] was found to be 26.9; in experiment [2], 8.9; in experiment [3], 172; in experiment [4], 116; in experiment [5], 22; in experiment [6], 126. The normalised SPOT signal, Boehringer light units (BLU); mean over the file's lines of this peptide in experiment [7] is 58.7.
In the case of EKLIKITPDTPFGF [YOR340C 102-115], the normalised SPOT signal, Boehringer light units (BLU); mean over the file's lines of this peptide in experiment [1] amounted to 0; in experiment [2], 19.1; in experiment [3] it was 206; in experiment [4], 46.5; in experiment [5] it was 36.8; in experiment [6] it was 61.9. The molecule also displayed a normalised SPOT signal, Boehringer light units (BLU); mean over the file's lines of this peptide in experiment [7] of 34.6.
As to EKVFRGDPEHPAIS [YJR010W 130-143], the normalised SPOT signal, Boehringer light units (BLU); mean over the file's lines of this peptide in experiment [1] is 17400; in experiment [2], 15.1; in experiment [3], 90; in experiment [4] it was 66.3; in experiment [5], 75.6; in experiment [6] it was 48.5. This molecule also yielded a normalised SPOT signal, Boehringer light units (BLU); mean over the file's lines of this peptide in experiment [7] of 67.9.
